Assay results: paper PMC3248148, “Hsp90 can Accommodate the Simultaneous Binding of the FKBP52 and HOP Proteins” (Oncotarget, 2011)
Each block holds one binder with its values, some of them ahead of it.

Assays:
human Hsp90α [1] = target: T1, human Hsp90α (human, UniProt P07900 1-732); test: native gel or EMSA; 7.5% Native-PAGE, no detergents, reducing or denaturing agents in the gel buffers; mixtures incubated at 30°C for 60 minutes; with and without 5mM ATP, 20mM Na2MoO4; with and without 0.01% dodecyl-maltopyranoside; settings: both partners purified
T1 construct: Hsp90α, human, expressed from pET28b-Hsp90α; Dimer by Sephacryl S-200 SEC; also called Hsp90 dimer; source: E. coli BL21 (DE3), purified (Ni2+ HisTrap, Q-Sepharose, Sephacryl S-200)

[2] = target: the molecule itself; test: SEC; HiPrep Sephacryl S-200; each protein alone; 50mM Hepes, 150mM NaCl, 50mM KCl, 10mM MgCl2, 1mM DTT, pH 7.5; molecular weight interpolated from standards
human Hsp90α [3] = target: T1, human Hsp90α; test: co-IP; Hsp90α bait held on monoclonal Hsp90 (H90-10) antibody/Protein A-Sepharose beads; p23, FKBP52 and HOP added in the 2:1:2:2 molar ratios; 30°C, 60 minutes; without ATP, with 5mM ATP, 20mM Na2MoO4, and with ATP plus 0.01% dodecyl-maltopyranoside; SDS-PAGE; settings: both partners purified

stoichiometry N (human Hsp90α [1]): 0.5 FKBP52 per Hsp90 chain (1:2)
B1: human FKBP52 (52 kDa immunophilin FK506-binding protein) (natural protein, UniProt Q02790 1-459, looked up)
chain: MTAEEMKATESGAQSAPLPMEGVDISPKQDEGVLKVIKREGTGTEMPMIGDRVFVHYTGWLLDGTKFDSSLDRKDKFSFDLGKGEVIKAWDIAIATMKVGEVCHITCKPEYAYGSAGSPPKIPPNATLVFEVELFEFKGEDLTEEEDGGIIRRIQTRGEGYAKPNEGAIVEVALEGYYKDKLFDQRELRFEIGEGENLDLPYGLERAIQRMEKGEHSIVYLKPSYAFGSVGKEKFQIPPNAELKYELHLKSFEKAKESWEMNSEEKLEQSTIVKERGTVYFKEGKYKQALLQYKKIVSWLEYESSFSNEEAQKAQALRLASHLNLAMCHLKLQAFSAAIESCNKALELDSNNEKGLFRRGEAHLAVNDFELARADFQKVLQLYPNNKAAKTQLAVCQQRIRRQLAREKKLYANMFERLAEEENKAKAEASSGDHPTDTEMKEEQKSNTAGSQSQVETEA
notes: FKBP52, human, expressed from pET28b-FKBP52; Dimer in solution by SEC and DLS; The gene is printed as Fkbp4, of the mouse; source: E. coli BL21 (DE3), purified (Ni2+ HisTrap, Q-Sepharose, Sephacryl S-200)
stoichiometry N [2]: 2

binding result (human Hsp90α [3]): binds
B2: human p23 co-chaperone (natural protein, UniProt Q15185 1-160, looked up)
chain: MQPASAKWYDRRDYVFIEFCVEDSKDVNVNFEKSKLTFSCLGGSDNFKHLNEIDLFHCIDPNDSKHKRTDRSILCCLRKGESGQSWPRLTKERAKLNWLSVDFNNWKDWEDDSDEDMSNFDRFSEMMNNMGGDEDVDLPEVDGADDDSQDSDDEKMPDLE
notes: p23 co-chaperone, human, untagged, expressed from pET23-p23; Eluted from Sephacryl S-200 as dimer and monomer; monomer by DLS; source: E. coli BL21 (DE3), purified (DEAE FF, Q-Sepharose, Sephacryl S-200)
